Reference: publication PMC11695723

What was measured:
[1] = target: Origin Recognition Complex (ORC); assay: pre-RC assembly on DNA beads, silver-stained gel band quantification; details: ATP, low salt wash; read off a plot
[2] = target: Origin Recognition Complex (ORC) (UniProt P54784); assay: pull-down; pre-RC assay as a2 but with 3 mM ATP, WT Cdc6, low salt wash

response [1] | complex formation compared to WT [2] | Substance
0.28 |  | MCM2-7 (wild type) mutant Mcm5:R721E; Mcm5:R735E [S. cerevisiae] / Origin Recognition Complex (ORC) [not stated] chain 4 R721E, chain 4 R735E
0.5 |  | MCM2-7 (wild type) mutant Mcm5:E710R; Mcm5:E717R; Mcm5:E736R [S. cerevisiae] / Origin Recognition Complex (ORC) [not stated] chain 4 E710R, chain 4 E717R, chain 4 E736R
 | 65% | MCM2-7-ΔC2, P29469 1-847; P24279 1-971; P30665 1-933; P29496 1-775; P53091 1-1017; P38132 1-845
0.25 |  | MCM2-7 (wild type) mutant Mcm5:K757D; Mcm5:R764E; Mcm5:R772E [S. cerevisiae] / Origin Recognition Complex (ORC) [not stated] chain 4 K757D, chain 4 R764E, chain 4 R772E
